This is an account of results in patent publication US20230151091A1 (NEW YORK UNIVERSITY, published 2023).

Assay [1] deals with T1, hECD: full-length extracellular region of human MuSK (E22 to T495) with C-terminal Avi- and His6-tags (human, UniProt O15146 22-495, biotinylated in vitro using the BirA enzyme).
T1 construct: also called human ECD; not shown: Avi- and His6-tags
T1 sequence: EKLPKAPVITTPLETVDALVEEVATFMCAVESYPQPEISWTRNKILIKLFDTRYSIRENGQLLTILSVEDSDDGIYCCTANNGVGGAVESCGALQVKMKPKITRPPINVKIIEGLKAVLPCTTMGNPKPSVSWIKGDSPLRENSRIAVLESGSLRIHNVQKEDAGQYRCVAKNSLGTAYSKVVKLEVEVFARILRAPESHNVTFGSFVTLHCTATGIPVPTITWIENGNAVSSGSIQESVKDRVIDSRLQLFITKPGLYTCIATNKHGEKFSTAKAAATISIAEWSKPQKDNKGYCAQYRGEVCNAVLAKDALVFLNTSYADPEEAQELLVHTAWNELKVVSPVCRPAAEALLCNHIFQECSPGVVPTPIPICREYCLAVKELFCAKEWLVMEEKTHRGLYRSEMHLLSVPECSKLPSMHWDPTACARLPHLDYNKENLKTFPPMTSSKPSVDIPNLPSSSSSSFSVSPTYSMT
Nature of the assay: bead-binding titration, Fab format: antigen immobilized on streptavidin beads, MFI by flow cytometry, curve is the 1:1 fit.

The target in a further assay is cynomolgus monkey MuSK (cynomolgus monkey, UniProt A0A2K5USF6 24-487). Nature of the assay: Biacore, MuSK on chip (200RU), 66.7 nM mAb, dissociation pH 7.4. In a few lines: (§1)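 Sensor chip coated in parallel with cynomolgus monkey, rat and mouse MuSK. Antibody applied at a single concentration; association and dissociation kinetic parameters calculated from the sensorgrams.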
cynomolgus monkey MuSK, sequence (A0A2K5USF6 entry or part of it): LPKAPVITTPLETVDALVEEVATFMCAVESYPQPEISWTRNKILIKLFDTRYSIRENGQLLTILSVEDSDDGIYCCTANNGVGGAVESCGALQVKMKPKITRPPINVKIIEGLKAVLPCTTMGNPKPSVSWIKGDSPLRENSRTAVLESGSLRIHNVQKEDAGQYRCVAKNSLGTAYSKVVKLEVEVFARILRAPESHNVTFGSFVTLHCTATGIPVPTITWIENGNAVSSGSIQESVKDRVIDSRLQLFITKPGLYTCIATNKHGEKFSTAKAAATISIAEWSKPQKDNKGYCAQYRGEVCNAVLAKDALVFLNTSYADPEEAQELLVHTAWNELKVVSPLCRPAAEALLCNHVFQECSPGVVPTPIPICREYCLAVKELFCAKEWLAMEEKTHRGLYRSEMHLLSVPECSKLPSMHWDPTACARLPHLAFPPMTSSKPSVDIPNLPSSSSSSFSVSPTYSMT

Another assay concerns the target T2, mouse MuSK (mouse, UniProt Q61006 22-494, limits assumed).
T2 construct: Coated on ELISA plates or on the Biacore chip; also called full length mouse MuSK; mouse MuSK (in house produced in HEK293 cells)
T2 sequence (looked up): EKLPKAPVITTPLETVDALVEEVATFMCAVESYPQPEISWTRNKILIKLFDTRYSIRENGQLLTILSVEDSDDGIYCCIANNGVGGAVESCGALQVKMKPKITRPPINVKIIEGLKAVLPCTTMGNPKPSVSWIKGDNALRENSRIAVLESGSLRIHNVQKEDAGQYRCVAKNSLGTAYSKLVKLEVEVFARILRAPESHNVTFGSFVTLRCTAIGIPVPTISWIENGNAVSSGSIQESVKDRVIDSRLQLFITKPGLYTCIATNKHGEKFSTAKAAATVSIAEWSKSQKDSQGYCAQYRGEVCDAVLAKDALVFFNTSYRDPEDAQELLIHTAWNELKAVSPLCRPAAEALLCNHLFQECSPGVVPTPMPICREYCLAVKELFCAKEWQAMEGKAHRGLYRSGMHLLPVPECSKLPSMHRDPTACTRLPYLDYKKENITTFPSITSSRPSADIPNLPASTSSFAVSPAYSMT
The description is as above. In a few lines:
as §1

For the next assay, the target named is T3, rat MuSK (rat, UniProt Q62838 22-494, limits assumed).
T3 construct: Coated on Biacore chip (200RU) or ELISA plate
T3 sequence (looked up): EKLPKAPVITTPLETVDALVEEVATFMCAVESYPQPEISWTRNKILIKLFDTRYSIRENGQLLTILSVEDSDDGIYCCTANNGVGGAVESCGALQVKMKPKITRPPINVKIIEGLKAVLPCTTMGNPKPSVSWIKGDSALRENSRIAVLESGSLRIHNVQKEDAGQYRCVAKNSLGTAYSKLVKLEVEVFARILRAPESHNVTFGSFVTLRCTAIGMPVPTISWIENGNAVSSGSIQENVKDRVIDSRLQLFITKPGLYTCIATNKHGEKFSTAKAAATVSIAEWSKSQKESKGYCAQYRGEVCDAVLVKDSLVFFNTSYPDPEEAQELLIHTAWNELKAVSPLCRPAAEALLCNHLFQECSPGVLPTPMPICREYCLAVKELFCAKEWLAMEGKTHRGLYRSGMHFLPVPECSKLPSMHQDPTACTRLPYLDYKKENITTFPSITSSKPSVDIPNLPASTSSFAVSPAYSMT
The assay is described as above. In a few lines:
as §1

B1: X2 Fab (Fab, V domains shown)
VH: EVQLVESGGGLVQPGGSLRLSCAASGFTVSSSSIHWVRQAPGKGLEWVASISSSYGSTSYADSVKGRFTISADTSKNTAYLQMNSLRAEDTAVYYCARSEGDRYVSGYMGMDYWGQGTLVTVSS
VL: DIQMTQSPSSLSASVGDRVTITCRASQSVSSAVAWYQQKPGKAPKLLIYSASSLYSGVPSRFSGSRSGTDFTLTISSLQPEDFATYYCQQSGVWLITFGQGTKVEIK
notes: Fab format
For B1, the “EC50 (read off the curve)” value in assay [1] is around 900 pM.

B2: X3 Fab (Fab, V domains shown)
VH: EVQLVESGGGLVQPGGSLRLSCAASGFTISSSSIHWVRQAPGKGLEWVASISSSSGYTYYADSVKGRFTISADTSKNTAYLQMNSLRAEDTAVYYCARSWYEMWMSGYFGFDYWGQGTLVTVSS
VL: DIQMTQSPSSLSASVGDRVTITCRASQSVSSAVAWYQQKPGKAPKLLIYSASSLYSGVPSRFSGSRSGTDFTLTISSLQPEDFATYYCQQSSSSLITFGQGTKVEIK
notes: Fab format
In the case of B2, the “EC50 (read off the curve)” value in assay [1] was around 200 pM.

B3: 3B2 (antibody, V domains shown)
VH: ELQLVESGGGLVQPGGSLRLSCAASGFTFDDYGMSWVRQAPGKGLEWVSAIPWNGGSTYYKESVKGRFTISRDNAKKTLYLQMNSLKSEDTAVYYCAKRSGRIAFGALDAWGQGTLVTVSS
VL: QAVVTQEPSLSVSPGGTVTLTCGLSSGSVTSSNYPDWYQQTPGQAPRGLIYSTDSRHSGVPSRFSGSISGNKAALTITGAQSEDEADYYCGLYMYSGSKNYVFGGGTKLTVL
notes: human IgG1 with the LALA mutations (L234A, L235A); produced in HEK293 cells; also called 3B2 mAb; parental 3B2 Ab
Consider B3, for which, in the assay with cynomolgus monkey MuSK, the R0 came to 143 RU, the koff is 0.00097 s⁻¹ and the kon was 790000 M⁻¹ s⁻¹. In the assay with mouse MuSK, the R0 came out at 195 RU, the koff worked out at 0.00061 s⁻¹ and the kon turned out to be 1.13e+06 M⁻¹ s⁻¹. Besides, in the assay with rat MuSK, the R0 is 162 RU, the koff was 0.00186 s⁻¹ and the kon turned out to be 1.14e+06 M⁻¹ s⁻¹.
